Positions count from the first letter of the chain named.
B1: 1H6 (antibody, V domains shown)
VH: QVQLQQSGAELVRPGTSVKVSCKASGYAFTNYLIEWVKQRPGQGLEWIGVINPGSGGTNYNEKFKGKATLTADKSSSTAYMHLSSLTSDDSAVYFCARGRYEWYFDVWGAGTTVTVSS
VL: DIQMTQTTSSLSASLGDRVTISCRASQDITNYLNWYQRKPDGTVKLLIYYTSRLHSGVPSRFSGSGSGTDYSLTISNLEQEDIATYFCQQGYTLPYTFGGGTKLEIKR
notes: Mouse hybridoma monoclonal tested as supernatant
B2: 12B2 (antibody, V domains shown)
VH: QVQLQQSGAELTKPGASVKISCKATGYTFSSYWIEWVKQRPGHGLEWIGEILPGSGITKYNDKFKGKATFTADTSSNTAYMQLSSLTSEDSAVYSCARLISYYYAMDYWGQGTSVTVSS
VL: B1 VL with T30S, R38Q, Y92N, Y96P
notes: as for B1
B3: 38A8 (antibody, V domains shown)
VH: B1 VH with V37I, H82Q
VL: B1 VL with T30S, Q37L, R38Q, T74S
notes: as for B1
B4: 34D10 (antibody, V domains shown)
VH: EVKLVESGGGLVKPGGSLKLSCAASGFTFSAYAMSWVRQTPEKRLEWVASISSGGTTYYPDSVKRRFTISRDNARNILYLQMSSLRSEDTAMYYCTRGGDYGYALDYWGQGTSVTVSS
VL: ENVLTQSPAIMSASLGEKVTMSCRASSSVNYMYWYQQKSDASPKLWIYYTSNLAPGVPARFSGSGSGNSYSLTISSMEGEDAATYYCQQFSSSPWTFGGGTKLEIKR
notes: as for B1
B5: 4B11 (antibody, V domains shown)
VH: B4 VH with A31S, E46A, T56N, T57I, Y59F, R65G, N73D, S83R, T96A, L105M
VL: B4 VL with S22N, Y48F, T101S
notes: as for B1
B6: 36A8 (antibody, V domains shown)
VH: B4 VH with K3R, A31T, S52N, S53G, T56S, R65G, S83R, T96A
VL: B4 VL with S22N, Y48F, T101S
notes: as for B1
B7: 28F4 (antibody, V domains shown)
VH: EVQLVESGGDLVKPGGSLKLSCAASGFTFSNYGMSWVRQTPDKRLEWVATISSGGTYTYYPDSVKGQFTIFRDNAKNTLYLQMSSLKSEDTAMYYCTRRDYDYEGFAYWGQGTLVTVS
VL: DIVLTQSPATLSVTPGDSVSLSCRASQSISNNLHWYQQKSHESPRLLIKYASHSISGIPSRFSGSGSGTDFTLSINSVETEDFGMYFCQQSNNWPFTFGSGTKLEIKR
notes: as for B1
B8: 18F7 (antibody, V domains shown)
VH: QVQLKESGPGLVAPSQSLSITCTVSGFSLTSYGVSWVRQPPGKGLEWLGIIWGDGSTNYHSVLKSRLSISKDNSKSQVFLKLNSLQTDDTATYYCAKQDFDVWGAGTTVTVSS
VL: DVQMIQSPFSLSASLGDIVTMTCQASQGTSINLNWFQQKPGKAPKLLIYGVSNLEDGVPSRFSGSRYGTDFTLTIGSLEDEDMATYFCLQHSYLPYTFGGGTKLEIKR
notes: as for B1
B9: 28C2 (antibody, V domains shown)
VH: QVTLKASGPGIVQPSQTLSLTCSFSGFSLNTSGMGVGWIRQPSGKGLEWLAHIWWDDDKRYNPALKSRLTISKDTSNNQIFLKIASVDTADTATYYCARSHYYGTFYFDYWGQGTTLTVSS
VL: DVQITQSPSYLAASPGETITINCRASKSISKYLAWYQEKPGTTYKLLIYSGSTLQSGIPSRFSGSGSGTDFTLTISSLEPEDFAMYYCQQHIEYPWTFGGGTKLEIKR
notes: as for B1
B10: 9D6 (antibody, V domains shown)
VH: QVTLKESGPGILQPSQTLSLTCSFSGFSLSTSGMGVGWIRQSSGKGLEWLAHIWWDDDKRYNPTLKSRLTISKDTSNNQVFLKIANMDTADIATYYCARSHYNGTFYFDFWGQGITLTVSS
VL: B9 VL with T42K, Y44N, S77T
notes: as for B1
B11: Recombinant FVIIa (enzyme)
chain 1: ANAFLEELRPGSLERECKEEQCSFEEAREIFKDAERTKLFWISYSDGDQCASSPCQNGGSCKDQLQSYICFCLPAFEGRNCETHKDDQLICVNENGGCEQYCSDHTGTKRSCRCHEGYSLLADGVSCTPTVEYPCGKIPILEKRNASKPQGR
chain 2: IVGGKVCPKGECPWQVLLLVNGAQLCGGTLINTIWVVSAAHCFDKIKNWRNLIAVLGEHDLSEHDGDEQSRRVAQVIIPSTYVPGTTNHDIALLRLHQPVVLTDHVVPLCLPERTFSERTLAFVRFSLVSGWGQLLDRGATALELMVLNVPRLMTQDCLQQSRKVGDSPNITEYMFCAGYSDGSKDSCKGDSGGPHATHYRGTWYLTGIVSWGQGCATVGHFGVYTRVSQYIEWLQKLMRSEPRPGVLLRAPFP
notes: domain: light chain of FVIIa;domain: heavy chain of FVIIa; Untargeted control; also called rFVIIa; recombinant FVIIa alone (no targeting moiety)

Target: T1, human GPIIb/IIIa (Calbiochem Cat No. 528240) (human, UniProt P08514 32-1039; P05106 27-788)
T1 construct: Bought purified protein coated on ELISA plates; How the α/β subunit specificity ELISA was set up is not described; also called αIIbβ3; glycoprotein IIb/IIIa
Assay: ELISA, hybridoma supernatant

Row | binding result | Binder
1 | binds | B1
2 | binds | B2
3 | binds | B3
4 | binds | B4
5 | binds | B5
6 | binds | B6
7 | binds | B7
8 | binds | B8
9 | binds | B9
10 | binds | B10

Target: T2, GPIIb/IIIa nanodiscs (recombinant biotinylated, HPC4-tagged GPIIb/IIIa) (human, UniProt P08514 32-1039; P05106 27-788)
T2 construct: Transiently expressed in HEK293 cells, purified, and put into nanodiscs with scaffold protein and phospholipids; It carries a tag for in vivo biotinylation and an HPC4 tag; also called GPIIb/IIIa receptor; biotinylated GPIIb/IIIa receptor
Assay: SPR, biotinylated GPIIb/IIIa nanodiscs on a streptavidin chip

Row | binding result | Binder
11 | no binding | B11

Target: T3, GPIIb/IIIa on human platelets (human, UniProt P08514 32-1039; P05106 27-788)
T3 construct: Native receptor on gel-purified human platelets or on platelets in citrated human whole blood; also called GPIIb/IIIa receptor
Assay: flow cytometry on platelets, hybridoma supernatant (signal higher than in ELISA)

Row | binding result | Binder
12 | binds | B7
13 | binds | B8

Target: T3, GPIIb/IIIa on human platelets
Assay: flow cytometry, protein spiked into citrated human whole blood, FITC anti-FVII on CD42b-gated platelets

Row | binding result | Binder
14 | no binding | B11
